pKd: −log10 of the molar value. Read-outs that look alike come from different tables or passages of the source.
Key:
human beta-Klotho [1] = target: T1, human beta-Klotho (Homo sapiens, UniProt Q86Z14); assay: SPR binding affinity and kinetics to human beta-Klotho (Biacore 8K, anti-human Fc capture)
T1 sequence (Q86Z14 1-1044): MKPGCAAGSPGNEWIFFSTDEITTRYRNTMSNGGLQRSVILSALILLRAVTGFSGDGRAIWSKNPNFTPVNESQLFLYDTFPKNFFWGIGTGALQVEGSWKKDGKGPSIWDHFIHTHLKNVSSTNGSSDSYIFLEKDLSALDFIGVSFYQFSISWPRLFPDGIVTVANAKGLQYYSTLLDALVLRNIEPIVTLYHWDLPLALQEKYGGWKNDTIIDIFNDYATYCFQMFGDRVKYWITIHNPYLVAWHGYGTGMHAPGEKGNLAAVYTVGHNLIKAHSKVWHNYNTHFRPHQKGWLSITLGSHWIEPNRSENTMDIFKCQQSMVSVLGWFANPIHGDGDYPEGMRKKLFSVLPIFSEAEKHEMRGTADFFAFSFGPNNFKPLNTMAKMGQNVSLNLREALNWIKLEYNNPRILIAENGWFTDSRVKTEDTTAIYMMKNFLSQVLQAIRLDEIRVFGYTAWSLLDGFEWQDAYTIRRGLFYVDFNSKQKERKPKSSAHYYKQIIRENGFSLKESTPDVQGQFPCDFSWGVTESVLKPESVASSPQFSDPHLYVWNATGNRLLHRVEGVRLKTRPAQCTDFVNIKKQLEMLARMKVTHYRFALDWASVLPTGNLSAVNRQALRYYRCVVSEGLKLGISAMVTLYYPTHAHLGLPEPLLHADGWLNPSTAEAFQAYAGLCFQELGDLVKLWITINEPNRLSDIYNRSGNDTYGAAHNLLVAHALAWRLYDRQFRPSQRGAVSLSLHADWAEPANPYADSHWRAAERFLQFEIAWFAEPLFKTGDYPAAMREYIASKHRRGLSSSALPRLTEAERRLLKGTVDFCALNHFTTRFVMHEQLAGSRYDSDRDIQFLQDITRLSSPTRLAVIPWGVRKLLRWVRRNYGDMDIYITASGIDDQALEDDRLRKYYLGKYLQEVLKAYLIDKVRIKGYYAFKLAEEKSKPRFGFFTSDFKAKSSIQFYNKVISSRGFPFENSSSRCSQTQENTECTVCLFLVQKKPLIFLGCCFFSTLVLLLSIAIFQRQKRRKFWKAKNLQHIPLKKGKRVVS
Experimental: Binding affinity and kinetics were measured on a Biacore 8K instrument (GE Healthcare). For the affinity capture of the diluted mAb sample, an anti-human Fc antibody (human antibody capture kit, GE Healthcare) was immobilized on all eight channels of a series S CM5 sensor chip (GE Healthcare) to approximately 10.000 RU. The anti-beta-Klotho antibodies were diluted into HBS-EP+ assay buffer (GE Healthcare) to 0.04 μg/mL. The antibodies were injected in the sample compartment, whereas the reference compartment was used without captured antibody. […] For the antigen inject the flow rate was adjusted to 60 μL/min with an association time of 180 sec and a dissociation time of 1800 sec. The maximum binding signal of beta-Klotho was in the range of 30 RU. At the end of each cycle an inject of regeneration solution, supplied with human antibody capture kit (GE Healthcare), supplemented with 10% non-specific binding reducer (GE Healthcare), for 1 min at 30 μL/min to remove antibody and antigen was performed. Binding kinetics data were evaluated with a 1:1 binding model using the Biacore 8K Evaluation Software version 1.1.1.7442 (GE Healthcare).
For interaction analysis with human beta-klotho, mAbs were captured via an anti-human Fc antibody immobilized on a series S CM5 sensor chip (human antibody capture kit, GE Healthcare). […] Binding kinetics data were evaluated with a 1:1 binding model using the Biacore 8K Evaluation Software version 1.1.1.7442 (GE Healthcare). For interaction analysis with Cynomolgus monkey beta-klotho, mAbs were captured via an anti-human Fc antibody immobilized on a series S CM5 sensor chip (human antibody capture kit, GE Healthcare). […] Binding kinetics data were evaluated with a 1:1 binding model using the Biacore 8K Evaluation Software version 1.1.1.7442 (GE Healthcare). Exemplary sensorgrams for the interaction are shown in FIG. 7 (human KLB) and 8 (monkey KLB), as well as in Table G.

human beta-Klotho [2] = target: T1, human beta-Klotho; assay: SPR analysis of the active fraction of stressed antibodies; format: binding; settings: 21 days
Experimental: Analysis of the active fraction of stressed antibodies was performed by SPR using the same Fc capture assay set up as described above for the affinity determination. In this case the association and dissociation times for human beta-Klotho were set to 240 sec and 300 sec, respectively. The active fraction of the samples was calculated as the ratio of binding signal for human beta-Klotho and the Fc capture signal of the antibody, normalized to the active fraction of the unstressed control samples. Mean values from three experiments were calculated.

[3] = Dynamic light scattering (DLS) and diffusion interaction parameter (kD); format: physicochemical
Experimental: Dynamic light scattering (DLS) was performed using a DynaPro Plate Reader (Wyatt Technology). The samples were measured in 384 well assay plates (Corning) at 25° C. Data were evaluated by cumulant fitting using Dynamics Software version 7.7.0.125 (Wyatt Technology).
Colloidal stability of the samples was assessed by measuring the diffusion interaction parameter (kD) at 20° C. using a DynaPro Plate Reader (Wyatt Technology). Before the measurements the samples were buffer exchanged against 5 L of 10 mmol/L Histidine pH 6.0 by dialysis for 20 h with one buffer change using 1 mL Float-A-Lyzer G2 devices with 3.5-5 kDa cut-off (Spectrum Labs). A dilution series from 1 to 4.5 mg/mL, in 0.5 mg/mL increments, was prepared in 10 mmol/L Histidine pH 6.0 and measured in 384 well assay plates (Corning).

[4] = Intact mass spectrometry (IMS); format: physicochemical; settings: for intact mass Identity confirmed / intact mass Peak intensity post stress: 21 days
Experimental: Protein integrity was analyzed by LC-MS. […] Reversed phase (RP) chromatography was done using a PLRP-S 1000A 5 μm, 50×2.1 mm (Agilent) with a guard column PLRP-S 300A 5 μm, 3×5 mm (Agilent) at 200 μL/min and 80° C. column temperature. Eluents were buffer A containing LC water and 0.1% formic acid as well as buffer B containing 90% acetonitrile, 10% LC water and 0.1% formic acid. 1 μg of protein was injected onto the column and eluted using linear gradient from 0 to 17 minutes with increasing acetonitrile concentration. Data was analyzed using MassHunter Bioconfirm B.06 (Agilent). Molecular masses were calculated based on the amino acid sequences of the proteins using GPMAW software version 10 (Lighthouse data).

[5] = SPR, 1:1 binding model, read-out: KD human KLB

Substance	affinity to human KLB compared to 16H7 (human beta-Klotho [1])	pKd (human beta-Klotho [1]; [5])	pKd (human beta-Klotho [1]; read-out: Affinity SPR KD)	SPR rel. active fraction (human beta-Klotho [2]; pH 5, 40° C.) [%]	SPR rel. active fraction (human beta-Klotho [2]; pH 6, 40° C.) [%]	SPR rel. active fraction (human beta-Klotho [2]; pH 8, 40° C.) [%]	Homogeneity DLS Hydrodynamic radius [3] [nm]	DLS Hydrodynamic radius ([3]; pH 5, 40° C., d 21) [nm]	DLS Hydrodynamic radius ([3]; pH 5, d 0) [nm]	DLS Hydrodynamic radius ([3]; pH 6, 40° C., d 21) [nm]	DLS Hydrodynamic radius ([3]; pH 6, d 0) [nm]	DLS Hydrodynamic radius ([3]; pH 8, 40° C., d 21) [nm]	DLS Hydrodynamic radius ([3]; pH 8, d 0) [nm]	Identity, correct pairing, intact mass, Identity confirmed [4]	intact mass Identity confirmed ([4]; pH 5, 40° C.)	intact mass Peak intensity post stress ([4]; pH 5, 40° C.) [%]	intact mass Identity confirmed ([4]; pH 6, 40° C.)	intact mass Peak intensity post stress ([4]; pH 6, 40° C.) [%]	intact mass Identity confirmed ([4]; pH 8, 40° C.)	intact mass Peak intensity post stress ([4]; pH 8, 40° C.) [%]
Ab0335: IgG4 PE; 16H7 VL (N25S, D49S, D50A, D91E, N93E); 16H7 VH (M34V, I83T, D109E); HC SEQ ID NO: 39, LC SEQ ID NO: 46	comparable affinity	9.80	9.80	93	92	73	5.2	5.2	5.3	5.1	5.2	6.1	5.3	Yes	Yes	84	Yes	85	Yes	53
Ab0429: IgG1 NNAS; 16H7 VL (N25S, D49S, D50A, D91E, N93E); 16H7 VH (M34V, I83T, D109E); HC SEQ ID NO: 42, LC SEQ ID NO: 49	–	9.73	9.72	94	92	77	5.3	5.4	5.4	5.5	5.4	6.3	5.3	Yes	Yes	95	Yes	83	Yes	68
Ab0428: IgG1 NNAS; 16H7 VL (N25S, D49S, D50E, D91E, N93E); 16H7 VH (M34V, I83T, D109E); HC SEQ ID NO: 41, LC SEQ ID NO: 48	–	9.69	9.68	94	93	79	5.4	5.5	5.4	5.3	5.4	6.1	5.4	Yes	Yes	84	Yes	87	Yes	56

More lines, main results first:

affinity to human KLB compared to 16H7 (human beta-Klotho [1])	pKd (human beta-Klotho [1]; [5])	pKd (human beta-Klotho [1]; read-out: Affinity SPR KD)	Substance	SPR rel. active fraction (human beta-Klotho [2]; pH 5, 40° C.) [%]	SPR rel. active fraction (human beta-Klotho [2]; pH 6, 40° C.) [%]	SPR rel. active fraction (human beta-Klotho [2]; pH 8, 40° C.) [%]	Homogeneity DLS Hydrodynamic radius [3] [nm]	DLS Hydrodynamic radius ([3]; pH 5, 40° C., d 21) [nm]	DLS Hydrodynamic radius ([3]; pH 5, d 0) [nm]	DLS Hydrodynamic radius ([3]; pH 6, 40° C., d 21) [nm]	DLS Hydrodynamic radius ([3]; pH 6, d 0) [nm]	DLS Hydrodynamic radius ([3]; pH 8, 40° C., d 21) [nm]	DLS Hydrodynamic radius ([3]; pH 8, d 0) [nm]	Identity, correct pairing, intact mass, Identity confirmed [4]	intact mass Identity confirmed ([4]; pH 5, 40° C.)	intact mass Peak intensity post stress ([4]; pH 5, 40° C.) [%]	intact mass Identity confirmed ([4]; pH 6, 40° C.)	intact mass Peak intensity post stress ([4]; pH 6, 40° C.) [%]	intact mass Identity confirmed ([4]; pH 8, 40° C.)	intact mass Peak intensity post stress ([4]; pH 8, 40° C.) [%]
comparable affinity	9.61	9.60	Ab0351: IgG4 PE; 16H7 VL (N25S, D49E, D50E, D91E, N93E); 16H7 VH (M34V, I83T, D109E); HC SEQ ID NO: 40, LC SEQ ID NO: 47	95	92	75	5.3	5.6	5.4	5.2	5.2	8.1	5.6	Yes	Yes	90	Yes	96	Yes	77
comparable affinity	9.69	9.68	Ab0331: IgG4 PE; 16H7 VL (N25S, D49S, D50E, D91E, N93E); 16H7 VH (M34V, I83T, D109E); HC SEQ ID NO: 38, LC SEQ ID NO: 45	97	91	78	5.3	5.3	5.5	5.2	5	5.9	5.6	Yes	Yes	84	Yes	97	Yes	75
–	9.54	9.54	Ab0430: IgG1 NNAS; 16H7 VL (N25S, D49E, D50E, D91E, N93E); 16H7 VH (M34V, I83T, D109E); HC SEQ ID NO: 43, LC SEQ ID NO: 50	94	92	75	5.4	5.4	5.4	5.4	5.4	6.3	5.4	Yes	Yes	80	Yes	81	Yes	54

From patent US20250115669A1, “FGFR1/KLB Targeting Agonistic Antigen-Binding Proteins and Conjugates Thereof with GLP-1R Agonistic Peptides” (SANOFI, priority 2020, published 2025)
